Results as given in patent publication US20200317768A1 (published 2020).

T1: human FcγRIIaH extracellular domain, C-terminal His-tag (human, UniProt P12318 34-217)
T1 construct: Soluble extracellular domain expressed in FreeStyle 293 cells; also called FcgRIIaH; human FcγRIIa (type H); not shown: His-tag added to the C-terminus
T1 sequence: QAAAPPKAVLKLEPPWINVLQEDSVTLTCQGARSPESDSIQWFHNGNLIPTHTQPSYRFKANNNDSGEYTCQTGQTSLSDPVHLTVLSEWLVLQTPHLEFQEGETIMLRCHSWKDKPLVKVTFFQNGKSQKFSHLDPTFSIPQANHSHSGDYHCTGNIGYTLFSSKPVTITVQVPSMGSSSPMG

T2: human FcγRIIaR extracellular domain, C-terminal His-tag (human, UniProt P12318 34-217)
T2 construct: Soluble extracellular domain expressed in FreeStyle 293 cells; also called FcgRIIaR; human FcγRIIa (type R); not shown: His-tag added to the C-terminus
T2 chain: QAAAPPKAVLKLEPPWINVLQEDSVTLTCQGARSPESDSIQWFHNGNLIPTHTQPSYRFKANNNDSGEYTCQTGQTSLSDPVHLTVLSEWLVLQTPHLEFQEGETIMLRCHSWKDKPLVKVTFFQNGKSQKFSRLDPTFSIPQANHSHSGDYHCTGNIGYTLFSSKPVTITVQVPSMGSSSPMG

T3: human FcγRIIb extracellular domain, C-terminal His-tag (human, UniProt P31994 43-217)
T3 construct: Soluble extracellular domain expressed in FreeStyle 293 cells; also called FcgRIIb; not shown: His-tag added to the C-terminus
T3 sequence: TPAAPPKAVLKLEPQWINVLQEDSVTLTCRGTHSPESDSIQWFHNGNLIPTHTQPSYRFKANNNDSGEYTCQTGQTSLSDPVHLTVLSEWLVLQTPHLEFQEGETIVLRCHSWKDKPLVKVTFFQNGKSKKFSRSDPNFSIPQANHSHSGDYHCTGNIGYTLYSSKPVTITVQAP


How the values were obtained:
[1] = target: T1, human FcγRIIaH extracellular domain, …; experiment: SPR (BIACORE); KD of SG1 divided by KD of the variant
Procedure: (§1) The kinetic analysis of interactions between these antibodies and FcγR was carried out using BIACORE® T200 or BIACORE® 4000 (GE Healthcare). HBS-EP+ (GE Healthcare) was used as the running buffer, and the measurement temperature was set to 25° C. A chip produced by immobilizing Protein A. Protein A/G or mouse anti-human IgG kappa light chain (BD Biosciences) onto a Series S Sensor Chip CM4 or CM5 (GE Healthcare) by the amine-coupling method was used. […] After the measurement, the antibody captured on the chip was washed off by allowing reaction with 10 mM glycine-HCl, pH1.5 and 25 mM NaOH so that the chip was regenerated and used repeatedly. The sensorgrams obtained as measurement results were analyzed by the 1:1 Langmuir binding model using the BIACORE® Evaluation Software to calculate the binding rate constant ka (L/mol/s) and dissociation rate constant kd (l/s), and the dissociation constant KD (mol/L) was calculated from these values. […] Regarding such interactions, KD values were calculated using the following 1:1 binding model described in BIACORE® T100 Software Handbook BR1006-48 Edition AE.
(§2) Furthermore, the substitutions used in Example 29 for improving antibody half-life and reducing binding to rheumatoid factor were introduced into human FcγRIIb-enhanced Fc variants and their affinity against human FcγRs were analyzed (Table 29). In this SPR analysis, all the data were obtained using mouse anti-human IgG kappa light chain for capturing the antibodies of interest.

[2] = target: T2, human FcγRIIaR extracellular domain, …; experiment: as above
Procedure: as §1, §2

[3] = target: T3, human FcγRIIb extracellular domain, …; experiment: as above
Procedure: as §1, §2

[4] = target: T4, human FcγRIIIaV extracellular domain, C-terminal His-tag (human, UniProt P08637 17-208); experiment: as above
T4 construct: Soluble extracellular domain expressed in FreeStyle 293 cells; also called FcgRIIIaV; not shown: His-tag added to the C-terminus
Procedure: as §1, §2

[5] = target: T1, human FcγRIIaH extracellular domain, …; experiment: SPR (BIACORE), antibody captured by mouse anti-human IgG kappa light chain, FcgR extracellular domain as analyte, 25 C
Procedure: as §1, §2

[6] = target: T2, human FcγRIIaR extracellular domain, …; experiment: as above
Procedure: as §1, §2

[7] = target: T3, human FcγRIIb extracellular domain, …; experiment: as above
Procedure: as §1, §2

[8] = target: T4, human FcγRIIIaV extracellular domain, …; experiment: as above
Procedure: as §1, §2

T4 sequence (P08637 17-208 F176V): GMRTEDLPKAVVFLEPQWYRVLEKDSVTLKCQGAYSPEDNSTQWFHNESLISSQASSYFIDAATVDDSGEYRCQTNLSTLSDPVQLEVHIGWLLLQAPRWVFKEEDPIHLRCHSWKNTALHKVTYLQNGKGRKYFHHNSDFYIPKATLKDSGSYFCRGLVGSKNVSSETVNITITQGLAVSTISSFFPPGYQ

Row | Binder | KD fold for humanFcgRs (SG1 = 1) [1] | KD fold for humanFcgRs (SG1 = 1) [2] | KD fold for humanFcgRs (SG1 = 1) [3] | KD fold for humanFcgRs (SG1 = 1) [4] | Kd [5] | Kd [6] | Kd [7] | Kd [8]
1 | MS103240H795-SG1/M103202L1045-SK1 (antibody, human IgG1, kappa, Parent constant region SG1 (human IgG1-like); also called MS1032LO19-SG1; copies: 2 + 2) heavy: not shown light: DIVMTQSPATLSLSPGERATLSCTTSQSVYHENWLSWFQQKPGQPPKLLIYWASTLAYGVPSRFSGSGSGTDFTLTISSLQPEDAATYYCAGGYGGGRYAFGQGTKVEIKRTVAAPSVFIFPPSDEQLKSGTASVVCLLNNFYPREAKVQWKVDNALQSGNSQESVTEQDSKDSTYSLSSTLTLSKADYEKHKVYACEVTHQGLSSPVTKSFNRGEC | 1 fold | 1 fold | 1 fold | 1 fold | 0.97 µM | 1.2 µM | 4700 nM | 0.72 µM
2 | MS103240H795-TT66/M103202L1045-SK1 (antibody) heavy: QVQLVESGGGLVQPGGSLRLSCAVSGIDLSHDDISWVRQAPGKGLEWVSIISYAGSTYYASWAKGRLTISKDTSKNQVVLTMTNMDPVDTATYYCARGVPAYSHGGDLWGQGTLVTVSSASTKGPSVFPLAPSSKSTSGGTAALGCLVKDYFPEPVTVSWNSGALTSGVHTFPAVLQSSGLYSLSSVVTVPSSSLGTQTYICNVNHKPSNTKVDKKVEPKSCDKTHTCPPCPAPELLGGDSVFLFPPKPKDVLMISRTPEVTCVVVDVSHEDPEVKFNWYVDGVEVHNAKTKPREEQYNSTYRVVSVLPVLHRDWLNGKEYKCKVSNKALPKPIEKTISKAKGQRREPQVYTLPPSREEMTKNQVSLTCLVKGFYPSDIAVEWESNGQPENNYKTTPPVLDSDGSFFLYSKLTVDKSRWQQGNVFSCSVMHEALHAHYTRKELSLSP light: DIVMTQSPATLSLSPGERATLSCTTSQSVYHENWLSWFQQKPGQPPKLLIYWASTLAYGVPSRFSGSGSGTDFTLTISSLQPEDAATYYCAGGYGGGRYAFGQGTKVEIKRTVAAPSVFIFPPSDEQLKSGTASVVCLLNNFYPREAKVQWKVDNALQSGNSQESVTEQDSKDSTYSLSSTLTLSKADYEKHKVYACEVTHQGLSSPVTKSFNRGEC | 0.007 fold | 0.04 fold | 4.7 fold | 0.001 fold | 130 µM | 32 µM | 1000 nM | 590 µM
3 | MS103240H795-TT67/M103202L1045-SK1 (antibody) heavy: QVQLVESGGGLVQPGGSLRLSCAVSGIDLSHDDISWVRQAPGKGLEWVSIISYAGSTYYASWAKGRLTISKDTSKNQVVLTMTNMDPVDTATYYCARGVPAYSHGGDLWGQGTLVTVSSASTKGPSVFPLAPSSKSTSGGTAALGCLVKDYFPEPVTVSWNSGALTSGVHTFPAVLQSSGLYSLSSVVTVPSSSLGTQTYICNVNHKPSNTKVDKKVEPKSCDKTHTCPPCPAPELLGGDSVFLFPPKPKDVLMISRTPEVTCVVVDVSHEDPEVKFNWYVDGVEVHNAKTKPREEQYNSTYRVVSVLPVLHRDWLNGKEYKCKVSNKALPKPIEKTISKAKGQRREPQVYTLPPSREEMTKNQVSLTCLVKGFYPSDIAVEWESNGQPENNYKTTPPVLDSDGSFFLYSKLTVDKSRWQQGNVFSCSVLHEALHAHTTRKELSLSP light: DIVMTQSPATLSLSPGERATLSCTTSQSVYHENWLSWFQQKPGQPPKLLIYWASTLAYGVPSRFSGSGSGTDFTLTISSLQPEDAATYYCAGGYGGGRYAFGQGTKVEIKRTVAAPSVFIFPPSDEQLKSGTASVVCLLNNFYPREAKVQWKVDNALQSGNSQESVTEQDSKDSTYSLSSTLTLSKADYEKHKVYACEVTHQGLSSPVTKSFNRGEC | 0.008 fold | 0.04 fold | 3.9 fold | 0.001 fold | 120 µM | 28 µM | 1200 nM | 610 µM

More lines, in order of falling Kd [5], values ahead:

Row | KD fold for humanFcgRs (SG1 = 1) [1] | KD fold for humanFcgRs (SG1 = 1) [2] | KD fold for humanFcgRs (SG1 = 1) [3] | KD fold for humanFcgRs (SG1 = 1) [4] | Kd [5] | Kd [6] | Kd [7] | Kd [8] | Binder
4 | 0.005 fold | 0.02 fold | 4.9 fold | 0.001 fold | 210 µM | 61 µM | 960 nM | 480 µM | MS103240H795-TT68/M103202L1045-SK1 (antibody, copies: 2 + 2) heavy: QVQLVESGGGLVQPGGSLRLSCAVSGIDLSHDDISWVRQAPGKGLEWVSIISYAGSTYYASWAKGRLTISKDTSKNQVVLTMTNMDPVDTATYYCARGVPAYSHGGDLWGQGTLVTVSSASTKGPSVFPLAPSSKSTSGGTAALGCLVKDYFPEPVTVSWNSGALTSGVHTFPAVLQSSGLYSLSSVVTVPSSSLGTQTYICNVNHKPSNTKVDKKVEPKSCDKTHTCPPCPAPELLGGDSVFLFPPKPKDVLMISRTPEVTCVVVDVSHEDPEVKFNWYVDGVEVHNAKTKPREEQYNSTYRVVSVLPVLHRDWLNGKEYKCKVSNKALPKPIEKTISKAKGQPREPQVYTLPPSREEMTKNQVSLTCLVKGFYPSDIAVEWESNGQPENNYKTTPPVLDSDGSFFLYSKLTVKKSRWQQGNVFSCSVMHEALHAHYTRKELSLSP light: DIVMTQSPATLSLSPGERATLSCTTSQSVYHENWLSWFQQKPGQPPKLLIYWASTLAYGVPSRFSGSGSGTDFTLTISSLQPEDAATYYCAGGYGGGRYAFGQGTKVEIKRTVAAPSVFIFPPSDEQLKSGTASVVCLLNNFYPREAKVQWKVDNALQSGNSQESVTEQDSKDSTYSLSSTLTLSKADYEKHKVYACEVTHQGLSSPVTKSFNRGEC
5 | 0.028 fold | 0.05 fold | 15.7 fold | 0.002 fold | 35 µM | 23 µM | 300 nM | 400 µM | MS103240H795-TT33/M103202L1045-SK1 (antibody, human IgG1, kappa, copies: 2 + 2) heavy: QVQLVESGGGLVQPGGSLRLSCAVSGIDLSHDDISWVRQAPGKGLEWVSIISYAGSTYYASWAKGRLTISKDTSKNQVVLTMTNMDPVDTATYYCARGVPAYSHGGDLWGQGTLVTVSSASTKGPSVFPLAPSSKSTSGGTAALGCLVKDYFPEPVTVSWNSGALTSGVHTFPAVLQSSGLYSLSSVVTVPSSSLGTQTYICNVNHKPSNTKVDKKVEPKSCDKTHTCPPCPAPEYLGGDSVFLFPPKPKDVLMISRTPEVTCVVIDVSHEDPEVKFNWYVDGVEVHNAKTKPREEQYNSTYRVVSVLPVLHRDWLNGKEYKCKVSNKALPKPIEKTISKAKGQPREPQVYTLPPSREEMTKNQVSLTCLVKGFYPSDIAVEWESNGQPENNYKTTPPVLDSDGSFFLYSKLTVKKSRWQQGNVFSCSVMHEALHNHYTQKSLSLSP light: DIVMTQSPATLSLSPGERATLSCTTSQSVYHENWLSWFQQKPGQPPKLLIYWASTLAYGVPSRFSGSGSGTDFTLTISSLQPEDAATYYCAGGYGGGRYAFGQGTKVEIKRTVAAPSVFIFPPSDEQLKSGTASVVCLLNNFYPREAKVQWKVDNALQSGNSQESVTEQDSKDSTYSLSSTLTLSKADYEKHKVYACEVTHQGLSSPVTKSFNRGEC
